These results are taken from a protein production outcome set (Wang et al. 2014).
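Note: failed if final PepcDB status was selected cloned or expressed and not failed if soluble or beyond.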

This series can be described thus: label from the status in PepcDB records.
With “MNNKIYFTPGPSELYPTVRQHMITALDEKIGVISHRSKKFEEVYKTASDNLKTLLELPSNYEVLFLASATEIWERIIQNCVEKKSFHCVNGSFSKRFYEFAGELGREAYKEEAAFGKGFYPADITVPADAEIICLTHNETSSGVSMPVEDINTFRDKNKDALIFVDAVSSLPYPKFDWTKIDSVFFSVQKCFGLPAGLGVWILNDRVIEKSKALLAKRKSIGTYHTIPSMLEKARVNQTPETPNAMNIFLLGKVTGDMLQISADGIRKQTEEKAALINTYIESSKVFSFGVEDAKLRSMTTIVANTTMLPGEINKILEPFDMAVGAGYGSKKETQIRIANFPAHSLEQVHKLVQTLKEKIG”, the protein production entry was “not failed”.
In the case of “MTAAGFNSILCLRQLVRLNRRQYSAPAKSVLSGSQTNDQATPPPTSKSADKMRGWQLHNYGDIDELQLSEMLKIPQIRCSNECLVRIRATAVNPIDLAMLRGYGATVLNKMRCQPGDGIEFPLILGREFCGELVQTGMGVSLPLGSRVWGVVPLQATIGSHAEYVAVPSYCLAPAPKELDDYEAASVLYAGLTAWSGLYITGGLGGPCGATTASGGGAHKRVLVLGGSGGVGTLAIQILKSQKVQVLATCSENAIEMVRNLGADLVVDYNNPQAMEELCKYAPYDIVLDCAGQGGQKAAESKYDFRQYITFSSPLLANIDKQGLGVGALKNVFDLFQTNVRSVTQRGGLVKWGFFSPAPQGIQFLQKLVEQRKLMPLIDSSYGFSELPKAFEKMKSGHLRGKIVVKLREETGD” it was “failed”.
Regarding “MSLSEGTFEVGKNTFLLNGEPFVVKAAEIHYPRIPKEYWEHRIKMCKALGMNTICLYVFWNFHEPEEGRYDFAGQKDIAAFCRLAQENGMYVIVRPGPYVCAEWEMGGLPWWLLKKKDIKLREQDPYYMERVKLFLNEVGKQLADLQISKGGNIIMVQVENEYGAFGIDKPYISEIRDMVKQAGFTGVPLFQCDWNSNFENNALDDLLWTINFGTGANIDEQFKRLKELRPDTPLMCSEFWSGWFDHWGAKHETRSAEELVKGMKEMLDRNISFSLYMTHGGTSFGHWGGANFPNFSPTCTSYDYDAPINESGKVTPKYLEVRNLLGNYLPEGETLPEIPDSIPTIAIPTIKMTEMAVLFDNLPHPKESEDIRTMEAFDQGWGSILYRTSLSASDKEQTLLITEAHDWAQVFLNGKKLATLSRLKGEGVVKLPPLKEGDRLDILVEAMGRMNFGKGIYDWKGITEKVELQSDKGVELVKDWQVYTIPVDYSFARDKQYKQQENAENQPAYYRSTFNLNELGDTFLNMMNWSKGMVWVNGHAIGRYWEIGPQQTLYVPGCWLKKGENEIIILDMAGPSKAETEGLRQPILDVQRGNGAYAHRKMGEGHHHHHH”, the protein production entry is recorded as “not failed”.
“MLLSIIMPAHNAAAYLERTLALLAQQIAGLEQVEVVAIDDASTDETAKILVEFARTHSWLKAISVDFANVGLARQAGIGLAGGQYVTFLDSDDAFLSGGLAWMVNVLRQRAPDLLMTPLQETGQPLDGTEVAGLFQDVVPLSTQQACDLFCEHQRLQGHFAGKCVTRQILLQHDLAAMECYEDMMTTPHWIVEAKSIVWGEVPVYAYYKRPGSLSDRGQTWRYGKEYIRALQSIEAAFAGRIAVWQTAHLWIGFAKDLLKTSTGRQFLDTQPAVAEKIQSISVWKYLVATQVSCKWKIRFLRVRLRLLEHHHHHH”: the protein production result is “not failed”.
“MNCAISGEVPVEPVVSTKSGLLFERRLIERHISDYGKCPVTGEPLTIDDIVPIKTGEIIKPKTLHTASIPGLLGTFQNEWDGLMLSNFALEQQLHTARQELSHALYQHDSACRVIARLKKERDEARQLLAEVERHIPAAPEAVTANAALSNGKRAAVDEELGPDAKKLCPGISAEIITELTDCNAALSQKRKKRQIPQTLASIDTLERFTQLSSHPLHKTNKPGICSMDILHSKDVIATGGVDATAVLFDRPSGQILSTLTGHSKKVTSVKFVGDSDLVLTASADKTVRIWRNPGDGNYACGYTLNDHSAEVRAVTVHPTNKYFVSASLDGTWCFYDLSSGSCLAQVSDDSKNVDYTAAAFHPDGLILGTGTSQSVVKIWDVKSQANVAKFDGHTGEVTAISFSENGYFLATAAEDGVRLWDLRKLRNFKSFLSADANSVEFDPSGSYLGIAASDIKVYQTASVKAEWNLIKTLPDLSGTGKATCVKFGSDAQYVAVGSMDRNYGYLVFLVMKKPTSMMTLRKTREQSVKNSDRTFQMSISSVISLKFLKFCCILQYLQQWGRIS”: the protein production entry is reported as “failed”.
Consider “MSLTSLIIAEDQNMLRQAMVQLIKLHGDFEILADTDNGLDAMKLIEEYNPNVVILDIEMPGMTGLEVLAEIRKKHLNIKVIIVTTFKRPGYFEKAVVNDVDAYVLKERSIEELVETINKVNNGEKEGHHHHHH”, for which the protein production result is listed as “not failed”.
As for “MADVAVLNIDSVICVNKNNDKSTPLTQLFLVLVAAESFYPTRRFVGIRVKRRQHQHLLESLVHSTAKQQGDFTKTAELATELLCQNLAVSLVSIWIFSADQGTQSLVAQFGSMALQDTYRPSLLHTVPRYLNELKNYRHIDAGNTLIDPRLTELVDSYFIPRQILSSLDVGIRINGHLEGVLCIERAQVTHHWHDSEIHLACQMADQLALTLATKHAYDKEERLSLFRCAIEQSRQMSMLINLHTEKVEYVNQAHEDITGIARDKSIGTNLRDLTFFRQHNALAEQTLAKIFRGDQAKGEVQFSRTDGSRYWLKYIVSQFITDRGNHYALVSGEENSDEHNYKAELERLAWRCGLTGLNNRSHFNRVLERTTHGLLLLVDLVAFKRFNDTYGHENGDSLLIEVGRRLKHFSEINKATEIARVGSDEFAVLLTDDNAVYDLDYFSTRLYQHLAMPILIGREQVEPKPALAVVDIASVANLFAPLTCADIAVQYAKKKKGTAIQVFNSTLLSAFKEDAQIERDLHSAIRGRQFELYYQPLRDLEQQTYIGAEALIRWHHPKKGVLYPGAFIDIAEQSGMINAIGSWVLEAACRQLNIWQHHNADLSMHVNVSARQFFSGNLYEQVWQLLTRYRLKPKTLILEITETELMGDIRHATLLCQELAELGVGLAIDDFGTGYSSMRYLKQFPISKLKIDRSFISDLTISRESQEIVSAIIAMANALNISLTAEGVETAEQEAFLAKSLCHQAQGFLYSPALREPEFAQFLLTAKQPNLIAH”, the protein production entry is on record as “failed”.
For “HRYIPTLFFHGWGSSYHAETHMADAIVKAGKTQTIVRAMVAKNGTVTLKGHFRSGDYRPIVEVNFANNRSSDYPTVGRWAKNVVVALQRTYGITSFNMVGHSMGNMAITYYLLANAQNKRLPQLRQQVAIAGHFNGILGMDDSPNQMTLNAAGRPNKLRPAYRQLLGLRRVYPRQQVRVLNIYGDKGDGTHSDGSVSNASSRSLRYLVAARARSYREVKLTGKHAQHSQLHENAQVDRLLIDFLWPTH”, the protein production entry is “not failed”.
With “MANSIDLIGYVHQPVQFDSTLDGKFWAGTVISHEPSSDSKSESDSSSNFWIPVLFEGDLAHTANSYLKKNDRVHITGQILGDVIQSGANSDQAHVQLFKSFHGSFSHQVMVRD” the entry was “failed”; with “MALAEDDGFYMGVGYQIGGAQQNIDNKGSTLRNNVINNFRQVGVGMAGGNGLLALATNTTMDALLGIGNQIVNTNTTVSNNNAELTQFKKILPQIEQRFETNKNAYSVQALQVYLSNVLYNLVNNSNNGSNNGVVPEYVGIIKVLYGSQNEFSLLATESVVLLNALTRVNLDSNSVFLKGLLAQMQLFNDTSSAKLGQIAENLKNGGAGSMLQKDVKTISDRIATYQENLKQLGGMLKNYDEPYLPQFGPGTSSQHGVINGFGIQVGYKQFFGNKRNIGLRYYAFFDYGFTQLGSLSSAVKANIFTYGAGTDFLWNIFRRVFSDQSLNVGVFGGIQIAGNTWDSSLRGQIENSFKEYPTPTNFQFLFNLGLRAHFASTMHRRFLSASQSIQHGMEFGVKIPAINQRYLRANGADVDYRRLYAFYINYTIGF”, “failed”.
Consider “AQGLDGRMLVEAPEEVGAPADVAARLGIEPGALVVHRRRRATIGEDVVQLQDAWYPLEIARAAGLDRPGKVVGGVLGAMTGAGLSPTSTDHDVEVWVPSAQQAAELSLGSRVSVLVVERVTYDATVRVLELTRHTGAADRLTLTYKGLPLRATGAEGSTS”, for which the protein production result is recorded as “failed”.
“MTTHDRVRLQLQALEALLREHQHWRNDEPQPHQFNSTQPFFMDTMEPLEWLQWGLIPRMHDLLNNNQPLPGAFAVAPYYEMALATDHPQRALILAELEKLDALFADDASLEHHHHHH”: the protein production result is reported as “failed”.
With “MAIKVGINGFGRIGRSFFRASWGREEIEIVAINDLTDAKHLAHLLKYDSVHGIFKGSVEAKDDSIVVDGKEIKVFAQKDPSQIPWGDLGVDVVIEATGVFRDRENASKHLQGGAKKVIITAPAKNPDITVVLGVNEEKYNPKEHNIISNASCTTNCLAPCVKVLNEAFGVEKGYMVTVHAYTNDQRLLDLPHKDFRRARAAAINIVPTTTGAAKAIGEVIPELKGKLDGTARRVPVPDGSLIDLTVVVNKAPSSVEEVNEKFREAAQKYRESGKVYLKEILQYCEDPIVSTDIVGNPHSAIFDAPLTQVIDNLVHIAAWYDNEWGYSCRLRDLVIYLAERGL” the entry was “not failed”; with “MPTLQLFIYIIGFLFLMYMAWSLWTEKPSNIEEIEPMSAKKQILFALSVSLLNPHAIMDTVGVIGTSASVYDGYDKVVFSLATISVSWIWFVFLAILGRITGKIDKSGKYIVILNKVSSVIVIIVGLIILKNIVGILS”, “failed”; with “MAEQDLTMIVGTYTSGDSKGLYSFRFNEENGTATALSEAEVENPSYLVPSADGKFIYAVSEFSNEQAAANAFAFNKEEGTFRLLNTQKTGGEDPCYIITNGSNVVTANYSGGSISVFPIDKDGSLLPASEVVKFKGSGADKERQEKPHLHCVRITPDGKYLFADDLGTDQIHKFIVNPNAKADNEDVFLKEGSPASYKVEAGSGPRHLTFAPNGSYAYLINELSGTVIAFEYNDGELKEIQTIAADTVGAKGSGDIHISPDGKFLYASNRLKADGLAIFSIHPENGMLTKVGYQLTGIHPRNFIITPNGKYLLVACRDSNVIQVYERDTDTGLLTDIRKDIKVDKPVCIKFVPLEHHHHHH”, “not failed”.
As to “MAEKSNKLDHIGIAVTSIKDVLPFYVGSLKLKLLGMEDLPSQGVKIAFLEIGESKIELLEPLSEESPIAKFIQKRGEGIHHIAIGVKSIEERIQEVKENGVQMINDEPVPGARGAQVAFLHPRSARGVLYEFCEKKEQ”, the protein production result is given as “not failed”.
Regarding “MIMKKYWKLMLMAVGMSAAFTLASCNDDKDVVIDQIYYISTDPSATTYPTTFSVSLVDNSVAGRPFFYVVGKSTMRVDRNTTLRVEEDSKLVEKYNETYGKKYLPFPEGTYSFSTNEVTINQGDNFSSDTIFISFSNWDKLSKIDKYLLPVSLKAVDDKGAVSMDRNLIYFIADFSTTNTGYNKPAAWKPLDRTDWDVSFSYAYGYDEAQFGGRLAVDGDVSTTWFTWGVVSAGECWWATTLPAPTHLTGFSLTRQTTFGSSYNVREAKVKVKKEGDTEWTEAGLFRFGSFKGNDPQYAVFIPAVENVKEFRIDIVSPADFTGFAELDLYQ”, the protein production result is on record as “failed”.
Consider “SEKLAASTEPQGPRPVLGRESVQVPDDQDFRSFRSECEAEVGWNLTYSRAGVSVWVQAVEMDRTLHKIKCRMECCDVPAETLYDVLHDIEYRKKWDSNVIETFDIARLTVNADVGYYSWRCPKPLKNRDVITLRSWLPMGADYIIMNYSVKHPKYPPRKDLVRAVSIQTGYLIQSTGPKSCVITYLAQVDPKGSLPKWVVNKSSQFLAPKAMKKMYKACLKYPEWKQKHLPHFKPWLHPEQSPLPSLALSELSVQHADSLENIDESAVAESREERMGGAGGEGSDDDTSLT”, for which the protein production result was “not failed”.
In the case of “MENAPLLFQLPDDDTLYQALLARDPAYEGFAFVGVKSTGVFCRLTCAARKPKRENTVFFGSIKGCVEAGFRACLRCRPLERAGVQEPWVQTLLEQLGRDPERRWYEDDLVAQGLDPSTVRRAFKRYFGVTFLEMARLRRMGQGMQQLASGEPVIEAQISAGFDSDSGFRHAFSRLAGQPPSNLRGRELLKVDWLQTPIGVMLAVADAQVLHLLEFFDRPALANELQNLQKSSGSSIGFGRFAPIDQIEAELQRYFAGEAVHFATPLAMSASPFTRTVWQALRAIPLGTTCSYAEVARQVGSPSAVRAVARANAANQISIVIACHRVIGADGSLTGYGGGLWRKRWLLEHERRLHHLQGASASGL” it was “failed”.
